Source: the RNAGym collection of RNA variant scans (doi:10.1101/gr.219683.116)

B1: mRNA-splicing (parent)
chain: AGUUGCUGCUGGGAGCUCCAGCACAGUGAAAUGGACAGAAGGGCAGAGCAA

Variants of: B1
Experiment: exon inclusion enrichment index; higher = more inclusion; WT1 exon 5 minigene, HEK293

Variant | exon inclusion enrichment index
C6A U7C C9A U10C G38U | 1.44
G5U G8U C9U U17A | 0.136
U17A C18G | 0.00663
C6A U7A C9A U10A U32C G33A | 0.27
G5A U7C G8A U10C A39G A40U | 0.283
G5U G8U C9U A37U G38U | 0.0252
G5C C6U G8C C9U U10A G11U | 0.953
G5A C6G U7G C9A G46U A47G | 0.00156
G2C G5A U7C G8A U10C | 2
G5A U7C G8A U10C C19U A20G | 0.888
G5A U7C G8A U10C C19U A20U | 0.734
C6A U7C C9A U10C G12A G13U | 1.08
C6G C9A U10A | 0.229
G5C C6A U7C G8A U10G G11A | 1.71
G5C C6U G8C C9U U10C A47U | 1.87
G5A C6G U7G C9A C18G C19G | 0.0012
G5A C6G U7G C9A C18G C19U | 0.00119
G5A C6G U7G C9A G34U | 0.000859
G5C C6U G8C C9U U10C A39C A40U | 1.13
G46C A47C | 0.227
G5A C6G U7G C9A A23G C24G | 0.0109

Variant | exon inclusion enrichment index
G5C C6U G8C C9U U10C G15A | 0.641
G5C C6G U7C U10C A40C G41A | 1.9
G2A G5C C6G U7C U10C | 3.98
G5A C6G U7G C9A A35U C36G | 0.00119
U3A U4C C6A U7C C9A U10C | 4.11
G5A C6U U7A G8U C9A G11U G12U | 0.00843
G5A U7C G8A U10C A37C G38A | 2.05
G5A U7C G8A U10C A37C G38U | 1.6
G5C C6U G8C C9U U10C U32A G33U | 1.25
G5A C6G U7G C9A A47C | 0.0181
G5C C6G U7C U10C G41C G42A | 3
G5A C6U U7A G8U C9G U10A | 0.0375
G5A C6U U7A G8U C9A G34C A35U | 0.0109
C6A U7C C9A U10C A29G A30G | 3.23
G12C | 1.58
G5C C6U G8C C9U U10C A39G A40C | 1.79
C6A U7C C9A U10C G21A | 3.08
G5C C6A U7C G8A U10A G26A U27A | 0.131
G5C C6A U7C G8A U10A A20C G21U | 0.0192
G5C C6A U7C G8A U10A A40G | 0.0695
G5U G8U C9U U17A C18A | 0.0626

Variant | exon inclusion enrichment index
C6G U7C U10C | 3.22
G5C C6U G8C C9U U10C G11A G12C | 0.41
G5C C6A U7C G8A U10A A20U G21A | 0.0323
G5A U7C G8A U10C C24G A25C | 3.54
G5A C6U U7A G8U C9A G41U G42U | 0.0785
G5C C6U G8C C9U U10C A30C A31C | 2.9
C6A U7C C9A U10C A40G G41U | 2.58
G5A C6G U7G C9A A29U A30C | 0.000854
G5A C6G U7G C9A A29U A30G | 0.00279
G5U G8U C9U C22A A23U | 0.0576
C6A U7A C9A U10A C16U U17G | 0.212
G5C C6G U7C U10C C24A A25U | 2.85
G5C C6G U7C U10C G28U A29C | 2.89
C6A U7A G8A C9A U10C | 1.36
G5U G8U C9U A23G C24A | 0.532
G5C C6A U7A U10A | 0.407
G5A C6U U7A G8U C9A C24A A25G | 0.0412
G5C C6U G8C C9U U10C U17A | 1.95
G5C C6U G8C C9U U10C C18A C19A | 0.438
C6A U7A C9A U10A G11A | 1.96
G5C C6U G8C C9U U10C C16G U17C | 1.12

Variant | exon inclusion enrichment index
G5A C6G U7G C9A G26C U27A | 0.00255
G5C C6G U7C U10C A45U G46C | 2.33
G5U G8U C9U G11A G12C | 0.0306
C6A U7A C9A U10A A25G | 1.94
G5C C6U G8C | 1.8
G21U C22A | 1.05
G5A C6G U7G C9A G38U A39C | 0.000723
C6A U7A C9A U10A G26C U27G | 2.09
G5C C6G U7C U10C U32C G33U | 2.45
C6A U7A C9A U10A A31U | 0.592
C6A U7A C9A U10A A45U G46U | 0.185
C6A U7C C9A U10C A25G G26C | 4.03
G5A U7C G8A U10C G12U | 1.13
G5A C6G U7G C9A A31U | 0.00278
G5C C6A U7C G8A U10A G41U G42U | 0.0854
G5C C6A U7C G8A U10A G41U G42A | 0.0336
G5A U7C G8A U10C A40G G41C | 3.76
G5C C6U G8C C9U U10C A14G G15C | 0.826
G5U G8U C9U G46A A47U | 0.164
G5C C6A U7C G8A U10A G21C C22A | 0.0674
G5A U7C G8U C9A U10C | 1.23
